{"source": "paper PMC3930863", "origin": "cited, not measured here", "key": {"[1]": {"target": "InlC (Listeria monocytogenes) (UniProt P71451)", "sequence (P71451 35-297)": "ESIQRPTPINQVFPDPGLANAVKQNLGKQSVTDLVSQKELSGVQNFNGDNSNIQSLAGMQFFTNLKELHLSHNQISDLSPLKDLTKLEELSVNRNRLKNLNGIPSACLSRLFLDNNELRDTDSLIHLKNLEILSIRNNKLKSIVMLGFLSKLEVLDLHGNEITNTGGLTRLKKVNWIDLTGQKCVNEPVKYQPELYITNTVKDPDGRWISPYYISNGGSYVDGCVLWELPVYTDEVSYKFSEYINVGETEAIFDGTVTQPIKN", "assay": "isothermal titration calorimetry"}, "N-WASP (Homo sapiens)": {"target": "N-WASP (Homo sapiens)", "assay": "isothermal titration calorimetry"}}, "data": [{"substance": "Tuba SH3-6 (from UniProt Q6XZF7)", "values": [{"measurement": "Kd", "setting": "[1]", "result": 5.4, "unit": "µM"}, {"measurement": "Kd", "setting": "N-WASP (Homo sapiens)", "result": 46.5, "unit": "µM"}]}]}
